Legend:
[1] = target: P3a^P18L-RFP (Brassica yellows virus (BrYV-A)); experiment: SDS-PAGE and western blot (dimer band under denaturing conditions); total protein of agroinfiltrated N. benthamiana leaves in 2x SDS-PAGE buffer, 100 °C 10 min, 12.5% SDS-PAGE; antisera to GFP or RFP
[2] = target: BrYV P3a^P18L, 3xFlag- and GFP-tagged copies (Brassica yellows virus (BrYV-A)); experiment: as above
[3] = target: His.MBP-P3a^P18L fusion protein (Brassica yellows virus (BrYV-A)); experiment: SDS-PAGE and western blot (dimer band under denaturing conditions); E. coli Rosetta (DE3) induced with 0.1 mM IPTG at 18 °C for 20 h; 12.5% SDS-PAGE; anti-MBP monoclonal antibody

Q: “P3a^P18L-RFP (from UniProt A0A897TIH8 1-45) (natural protein)” was tested. Which stoichiometry N [1] did it give?
A: 2

Q: “BrYV P3a^P18L, 3xFlag- and GFP-tagged copies (from UniProt A0A897TIH8 1-45) (natural protein)” was tested. Which stoichiometry N [2] did it give?
A: 2

Q: For “His.MBP-P3a^P18L fusion protein (from UniProt A0A897TIH8 1-45) (natural protein)”, which stoichiometry N [3] is on record?
A: 2

— publication PMC5893644
